Experimental data published in publication PMC7470980, “Mechanism of translation inhibition by type II GNAT toxin AtaT2” (Nucleic Acids Research, 2020).

How the values were obtained:
[1] = molecular target: the molecule itself; assay: SEC
[2] = molecular target: the molecule itself; assay: SEC; […]; 10 mM Tris-HCl pH 8.0, 150 mM NaCl; 0.2 ml/min; […]

Row | Protein | stoichiometry N [1] | stoichiometry N [2]
1 | AtaT2 toxin (enzyme) MGITAPTPLTSEHNLADFCCSDHGMNEWLKKKALKNHSSGLSRVYVICIANTRQVIGYYCLSTGSIQRNLAPGAMRRNAPESLPVVVLGRLAIDQAWAGKGLGVALLKDAVYRTMSIAQQVGVRALIVHALDDSVRNFYLKYAFVPSPFQSLTLLYPITLE | 2 | 
2 | AtaR2 antitoxin (natural protein) MKPESKEAPINIRAKASQRDLIDMAANLVAKSRTDFMLDAACREAQDILLDQRLFILDDEQYDAFLAALDAPITAERQAKINALMNRKSPWE |  | 4
